{"source": "patent US20060177442A1", "about": "(Bristol-Myers Squibb, published 2006)", "target": "T1, CD30 on Hodgkin-derived cell lines (L540, L428) (human, UniProt P28908 19-595)", "T1 sequence (looked up)": "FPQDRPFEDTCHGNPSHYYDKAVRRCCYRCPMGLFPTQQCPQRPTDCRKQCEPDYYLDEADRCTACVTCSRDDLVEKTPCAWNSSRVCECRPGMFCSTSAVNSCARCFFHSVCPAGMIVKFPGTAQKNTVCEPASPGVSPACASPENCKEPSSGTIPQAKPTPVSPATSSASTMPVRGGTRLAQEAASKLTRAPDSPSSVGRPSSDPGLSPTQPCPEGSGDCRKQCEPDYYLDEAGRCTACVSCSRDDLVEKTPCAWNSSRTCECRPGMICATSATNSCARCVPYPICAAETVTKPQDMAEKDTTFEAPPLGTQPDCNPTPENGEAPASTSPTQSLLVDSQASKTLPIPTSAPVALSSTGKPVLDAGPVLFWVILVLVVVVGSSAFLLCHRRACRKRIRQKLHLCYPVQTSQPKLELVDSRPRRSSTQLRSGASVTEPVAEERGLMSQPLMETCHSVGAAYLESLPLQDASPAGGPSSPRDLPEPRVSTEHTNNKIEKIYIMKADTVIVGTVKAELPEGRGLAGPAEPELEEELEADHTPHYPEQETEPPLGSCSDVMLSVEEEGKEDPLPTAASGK", "assay": "cell-based or functional assay"}
{"binder": "fully human anti-CD30 monoclonal antibody 5F11 (antibody, V domains shown) VH: QVQLQQWGAGLLKPSETLSLTCAVYGGSFSAYYWSWIRQPPGKGLEWIGDINHGGGTNYNPSLKSRVTISVDTSKNQFSLKLNSVTAADTAVYYCASLTAYWGQGSLVTVSS VL: DIQMTQSPTSLSASVGDRVTITCRASQGISSWLTWYQQKPEKAPKSLIYAASSLQSGVPSRFSGSGSGTDFTLTISSLQPEDFATYYCQQYDSYPITFGQGTRLEIK", "values": [{"measurement": "NF-κB-responsive luciferase reporter gene in transfected L428 cells", "value": "~2", "unit": "fold"}]}
